The results in this text go back to publication PMC3749527.

The target in the test is Respiratory syncytial virus nucleoprotein N, R234A mutant (human respiratory syncytial virus) (UniProt P03418).

For “Respiratory syncytial virus nucleoprotein N, R234A mutant (from UniProt P03418 1-391) (natural protein)”, the polymerase activity (viral RNA synthesis) in an HRSV plasmid-based minigenome luciferase assay in BSRT7/5 cells, compared to wt N is 68 % of wt N.
